According to the nanobody polyreactivity screen of Harvey et al. (2022):

Experiment: yeast display, Sf9 membrane polyspecificity reagent, FACS + sequencing; frameworks hold sequencing errors
Outline: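 A synthetic nanobody library was expressed on Saccharomyces cerevisiae BJ5465 by galactose induction for 36–48 hours. The library was stained for 1 hour at 4 °C with 10% biotinylated, detergent-solubilized Sf9 membrane reagent and enriched with streptavidin microbeads before FACS. Low and high (top ~1%) gates were set on anti-HA fluorescence for expression and streptavidin fluorescence for reagent binding, and each polyreactivity label reflects the gate of origin.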

Sequence	polyreactivity (PSR sort gate)
QVQLVESGGGLVQAGGSLRLSCAASGFTFRKNAMGWYRQAPGKERELVAAISRRGGRTYYADSVKGRFTISRDNAKNTVYLQMNSLKPEDSAVYYCNDDEYGGSSGRKGRYNYWGQGTQVTVSS	low polyreactivity
QVQLVESGGGLVQAGGSLRLSCAASGFTFRKNAMGWYRQAPGKERELVAAISSGSGSTYYADSVKGRFTISRDNAKNTVYLQMNSLKPEDTAVYYCNSEAYYTTGYPTSDVFDRYDYWGKGTQVTVSS	low polyreactivity
QVQLVESGGGLVQAGGSLRLSCAASGFTFRKYAMGWYRQAPGKERELVADISGGTGSTYYADSVKGRFTISRDNAKNTDYLHMNSLKPEDTAVYYCNAEGWYYLTEYGYWGQGTQLTVSS	low polyreactivity
QVQLVESGGGLVQAGGSLRLSCAASGFTFRKYAMGWYRQAPGKESELVAAISWSGGSTYYADSVKGRFTISRDNAKNTVYLQMNSMKPEDTAVYYCAAPHWSPYDYWGQGTQVTVSS	high polyreactivity
QVQLVESGGGLVQAGGSLRLSCAASGFTFRLVNAMGWYRQAPGKERELVAGINSGDITYYADSVKGRFTISRDNAKNTVYLQMNSLKPEDTAVYYCAARVAWGYDYWGQGTQVTVSS	low polyreactivity
QVQLVESGGGLVQAGGSLRLSCAASGFTFRNYAMGWYIQAPGKERELVATISWSGTSTYYADSVKGRFTISRDNAKNTVYLQMNSLKPEDTAVYYCAARGRHSGYYSFPYYYWGQGTQVTVSS	low polyreactivity
QVQLVESGGGLVQAGGSLRLSCAASGFTFRNYAMGWYRQAPGKEREFVAAISFSGGRTYYADSVKGRFTISRDNAKNTVYLQMNSLKPEDTAVYYCAKKSYSKYDYWGQGTQVTVSS	low polyreactivity
QVQLVESGGGLVQAGGSLRLSCAASGFTFRPYVMGCYRQAPGKERELVAGISTGGSTYYADSVKGRFTISRDNAKNTVYLQMNSLKPEDTAVYYCAKRGKQYRKMNYWGQGTQVTVSS	high polyreactivity
QVQLVESGGGLVQAGGSLRLSCAASGFTFRQNAMGWYIQAPGKERELVAAISRGGGGTHYADSVKGRFTISRDNAKNNVYLHMNSLKPEDTAVYYCAKRRYPTFVVPVYYWGQGTQVTVSS	high polyreactivity
QVQLVESGGGLVQAGGSLRLSCAASGFTFRQNSIGWSRQAPGKERELVAAISRSGSRTYYADSVKGRFTISRDNAKNTVYLQMIRLKPEDTAVYYCKAVFSSFTVEYYWGQGTQVTVSS	high polyreactivity
QVQLVESGGGLVQAGGSLRLSCAASGFTFRRNAMGWYRQAPGKERELVAAITASGGRTYYADSVKGRFTISRDYAKNTVYLQMNSLKPEDTAVFYCAARLRNIYYFRMGYWGQGTKVTVSS	high polyreactivity
QVQLVESGGGLVQAGGSLRLSCAASGFTFRRNAMGWYRQAPGKERELVAAITRGGGSTYYADSVKGRFTISRDNAKNTVYLQMNSLKPEDTAVYYCAADGYYQYESWGQGTQVTVSS	high polyreactivity
QVQLVESGGGLVQAGGSLRLSCAASGFTFRRYAMGWYIQAPGKERELVAAIRSTGGSTYYADSVKGRFTISRDNAKNTVYLQMNSLKPEDTAVYYCNAGTPVRGYNYWGQGTQVTVSS	high polyreactivity
QVQLVESGGGLVQAGGSLRLSCAASGFTFRRYAMGWYRQAPGKERELVAAINWNGDSTYYADSVKGRFTISRDNAKNTVYLQMNSVKPEDTAVYYCATSDYYYDYWGQGTQVTVSS	high polyreactivity
QVQLVESGGGLVQAGGSLRLSCAASGFTFRRYAMGWYRQAPGKERELVAAISIRGGRTYYADSVKGRFTISRDNAKNTVYLQMNSLKPEDTAVYYCAAEVGFWGYGGYYYWGQGTQVTVSS	high polyreactivity
QVQLVESGGGLVQAGGSLRLSCAASGFTFRRYAMGWYRQAPGKERELVAAISYSGGITYYADSVKGRFTISRDNAKNTVYLQMNSLKPEDTAVYYCAAESVWTWYYTTAGMDYWGQGTQVTVSS	high polyreactivity
QVQLVESGGGLVQAGGSLRLSCAASGFTFRRYAMGWYRQAPGKERELVAAITWSGGSTYYADSVKGRFTISRDNAKNTVYLQMNSLKPEDTAVYYCNKAYSPLYFSYNYWGQGTQVTVSS	high polyreactivity
QVQLVESGGGLVQAGGSLRLSCAASGFTFRRYAMGWYRQAPGKERELVATITKGGGSTYYADSVKGRFTISRDNAKNTVYLQMNSLKPEDTAVYYCAKRYPYGLTVGASDYWGQCTQVTVSS	high polyreactivity
QVQLVESGGGLVQAGGSLRLSCAASGFTFRRYAMGWYRQAPGKERELVAVITSTDSTYYADSVKGRFTISRDNAKNTVYFQMYSLKPEDTAVYYCARVYLGPRYAVFIYGYWGQGTQVTVSS	high polyreactivity
QVQLVESGGGLVQAGGSLRLSCAASGFTFRRYAMGWYRQAPGKERELVAVITTAGSTNYADSVKGRFTISRDNAKNTVYLQMNSLKPEDTAVYYCATDNGTRKRRYDYWGQGTQVTVSS	low polyreactivity
QVQLVESGGGLVQAGGSLRLSCAASGFTFRRYAMGWYRQAPGKERELVAVITTGGSTYYADSVKGRFTISRDNAKYTVYLQMNSLKPEDTAVYYCAARYYWYSQEYVMSSWWGDYWGLGTQVTVSS	high polyreactivity
QVQLVESGGGLVQAGGSLRLSCAASGFTFRRYDMGWYRQAPGKERELVATINRGGSTDYADSVKGRFTISRDNAKNTVYLQMNSLKPEDTAVYYCATRYYSSRTWSEYYYWGQGTQVTVSS	high polyreactivity

Sequence	polyreactivity (PSR sort gate)
QVQLVESGGGLVQAGGSLRLSCAASGFTFRRYTMGWYRQAPGKERELVARISSRGGRTFYADSVKGRFTISRDNAKNTVYLQMNSLKPEDTAVYYCAKRAPYGTTSPGGDYWGQGTQVTVSS	high polyreactivity
QVQLVESGGGLVQAGGSLRLSCAASGFTFRRYVMGWYRQAPGKERELVAAISSGGRTNYADSVKGRFTISRYNAKNTVYLQMNSLKPEDTAVYYCNKASTSYYRFNYWGQGTQVTVSS	high polyreactivity
QVQLVESGGGLVQAGGSLRLSCAASGFTFRSNVMGWSRQAPGKERELVAGITQRGGRTYYADSEKGRFTISRDNAKNTVYLQMNSLKPEDTAVYYCAADRSEYDYWGQGTQVTVSS	high polyreactivity
QVQLVESGGGLVQAGGSLRLSCAASGFTFRSNVMGWYRQATGKERELVAAISWSGGSTYYADSVKGRFTISRDNAKNNVYLQMNSLKPEDTAVYYCATVQVVGPWSYRKLDYWGQGTQVTVSS	high polyreactivity
QVQLVESGGGLVQAGGSLRLSCAASGFTFRTNAMGWYRQAPGKERELVAVISRRGGSTYYADSVKGRFTISRDNAKNTVYLQMNSLKPEDTGVYYCNAGDGTVGRTYYRAYDYWGQGTQVTVSS	high polyreactivity
QVQLVESGGGLVQAGGSLRLSCAASGFTFRTYAMGWYRQAPGKERELVATIRRAGSTNYADSVKGRFTISRDNAKNTVYLQMNSLNPEDTAVYYCAARVVTRVRGVGYNYWGQGTQVTVSS	high polyreactivity
QVQLVESGGGLVQAGGSLRLSCAASGFTFRVNAMGWYRQAPGKERELVAAISSGGRTYYADSVKGRFTISRDNAKNTVYLQMNSLKPEDTAVYYCNAGRVRHGNDYWGQGTQVTVSS	high polyreactivity
QVQLVESGGGLVQAGGSLRLSCAASGFTFRVNAMGWYRQAPGKERELVAAISSGGSTNYADSVKGRFTISRDNAKYTVYLQMNSLKPEDTAVYYCAKRFKYIYYWGQGTQVTVSS	high polyreactivity
QVQLVESGGGLVQAGGSLRLSCAASGFTFRVNAMGWYRQAPGKERELVAAITYSGGSTYYADSVKGRFTISRDNAKNTVYLQMNSLKPEDTAVYYCNKARWNSWLYGYHYRGLRSYDYWGQGTQVSVSS	high polyreactivity
QVQLVESGGGLVQAGGSLRLSCAASGFTFRVNAMGWYRQAPGKERELVASITVSGGNTYYADSVKGRFTISRDNEKNTVYLLMNSLKPEDTAVYYCATDFSPVYYTRYDYWGQGTQVTVSS	low polyreactivity
QVQLVESGGGLVQAGGSLRLSCAASGFTFRVYAMGWYIQAPGKERELVAAITKRGGTTYYADSVKGRFTISRDNAKNTVYLQMNSLKPEDTAVYYCATENTPHYASHGYLGQGTQVTVSS	high polyreactivity
QVQLVESGGGLVQAGGSLRLSCAASGFTFRVYAMGWYRQAPGKERELVAVISGTGGRTYYADSVKGRFTISRDIAKNTVYLQMNSLKPEDTAVYYCARRGRPPAIYDYWGQGTQVTVSS	high polyreactivity
QVQLVESGGGLVQAGGSLRLSCAASGFTFRVYAMGWYRTAPVKEREFVASITWGGGRTYYADSVKGRFTISRDNAKNTVYLLMNSLKPEDTAVYYCAAYGSLDSYVSYYYWGQGTQVTVSS	high polyreactivity
QVQLVESGGGLVQAGGSLRLSCAASGFTFRWYAMGWYRPAPGKERELVADISRGGSTNYADSVKGRFTISRDNAKNTVYLQMNSLKPEDTAVYYCAAVVYRATYRVGGYLWYYYWGQGTQVTVSS	high polyreactivity
QVQLVESGGGLVQAGGSLRLSCAASGFTFRWYAMGWYRQAPGKERELVAAISSGGGSTYYADSVKGRFTISRDNAKNTVYLQMNSLKPEDTAVYYCNARIQYFKYRGYEYWGQGTQVTVSS	high polyreactivity
QVQLVESGGGLVQAGGSLRLSCAASGFTFRWYAMGWYRQAPGKERELVAAISSSGGSTYYADSVKGRFTISRDNAKNTVYLQMKSLKPEDTAVYYCNTDANYLTNTIYDYWGQGTQVTVSS	high polyreactivity
QVQLVESGGGLVQAGGSLRLSCAASGFTFRWYAMGWYRQAPGKERELVAAISTSGGSTYYADSVKGRFTITRDNAKNTVYLQMNSLKPEDTSVYYCNRVNNYPTRKYDYWGQGSQVTVSS	high polyreactivity
QVQLVESGGGLVQAGGSLRLSCAASGFTFRWYAMGWYRQAPGKERELVARISWDGGSTYYADSVKGRFTISRDNAKNTVYLQMNSLKPEDTAVYDCAKDWYYLRRNYDYWGQGTQVTVSS	high polyreactivity
QVQLVESGGGLVQAGGSLRLSCAASGFTFRWYTMGWYRPAPGKERELVAAISWSGTSTYYADSVKGRFTISRDNAKNTVYLQMNSLKPEDTAVYYCAAADFYYTGADDYWGQGTQVTVSS	high polyreactivity
QVQLVESGGGLVQAGGSLRLSCAASGFTFRWYTMGWYRQAPGKERELGAAINRGGSTYYADSVKGRFTISRDNAQNTVYLQMNSLKPEDTAVYYCAKSVSASWGRDYWGQGTQVTVSS	high polyreactivity
QVQLVESGGGLVQAGGSLRLSCAASGFTFRWYTMGWYRQAPGKERELVAAISWSGTSTYYADSVKGRFTISRDNAKNIVYLQMNSLKPEDTAVYYCAAADFYYTGADDYWGQGTQVTVSS	high polyreactivity
